Laboratory results as given in the Human Domainome abundance scans (Beltran et al. 2025).
± gives the uncertainty stated by the source.

B1: Segment polarity protein dishevelled homolog DVL-3, residues 2 to 81; numbered along this chain, Q92997 (parent)
chain: GETKIIYHLDGQETPYLVKLPLPAERVTLADFKGVLQRPSYKFFFKSMDDDFGVVKEEISDDNAKLPCFNGRVVSWLVSA

Variants of: B1
Test: abundance fitness (aPCA) (normalised: wild type 0, dead -1); higher = more abundant; growth selection in yeast, the domain comes from the species named
Conditions: Homo sapiens

Variant	abundance fitness
GETKIIYHLDGQETPYLVKLPLPAERVTLADFKLVLQRPSYKFFFKSMDDDFGVVKEEISDDNAKLPCFNGRVVSWLVSA	-0.119 ± 0.058
GETKIIYHLDGQETPYLVKLPLPAERVTLADFKCVLQRPSYKFFFKSMDDDFGVVKEEISDDNAKLPCFNGRVVSWLVSA	-0.213 ± 0.078
GETKIIYHLDGQETPYLVKLPLPAERVTLADFKQVLQRPSYKFFFKSMDDDFGVVKEEISDDNAKLPCFNGRVVSWLVSA	0.166 ± 0.076
GETKIIYHLDGQETPYLVKLPLPAERVTLADFKIVLQRPSYKFFFKSMDDDFGVVKEEISDDNAKLPCFNGRVVSWLVSA	-0.519 ± 0.24
GETKIIYHLDGQETPYLVKLPLPAERVTLADFKMVLQRPSYKFFFKSMDDDFGVVKEEISDDNAKLPCFNGRVVSWLVSA	0.042 ± 0.072
GETKIIYHLDGQETPYLVKLPLPAERVTLADFKNVLQRPSYKFFFKSMDDDFGVVKEEISDDNAKLPCFNGRVVSWLVSA	0.291 ± 0.092
GETKIIYHLDGQETPYLVKLPLPAERVTLADFKDVLQRPSYKFFFKSMDDDFGVVKEEISDDNAKLPCFNGRVVSWLVSA	0.418 ± 0.08
GETKIIYHLDGQETPYLVKLPLPAERVTLADFKAVLQRPSYKFFFKSMDDDFGVVKEEISDDNAKLPCFNGRVVSWLVSA	0.174 ± 0.053
GETKIIYHLDGQETPYLVKLPLPAERVTLADFKHVLQRPSYKFFFKSMDDDFGVVKEEISDDNAKLPCFNGRVVSWLVSA	-0.388 ± 0.16
GETKIIYHLDGQETPYLVKLPLPAERVTLADFKPVLQRPSYKFFFKSMDDDFGVVKEEISDDNAKLPCFNGRVVSWLVSA	-1.03 ± 0.21
GETKIIYHLDGQETPYLVKLPLPAERVTLAWFKGVLQRPSYKFFFKSMDDDFGVVKEEISDDNAKLPCFNGRVVSWLVSA	-0.618 ± 0.14
GETKIIYHLDGQETPYLVKLPLPAERVTLARFKGVLQRPSYKFFFKSMDDDFGVVKEEISDDNAKLPCFNGRVVSWLVSA	-0.711 ± 0.093
GETKIIYHLDGQETPYLVKLPLPAERVTLAPFKGVLQRPSYKFFFKSMDDDFGVVKEEISDDNAKLPCFNGRVVSWLVSA	-0.35 ± 0.12
GETKIIYHLDGQETPYLVKLPLPAERVTLANFKGVLQRPSYKFFFKSMDDDFGVVKEEISDDNAKLPCFNGRVVSWLVSA	-0.665 ± 0.3
GETKIIYHLDGQETPYLVKLPLPAERVTLAIFKGVLQRPSYKFFFKSMDDDFGVVKEEISDDNAKLPCFNGRVVSWLVSA	-0.173 ± 0.13
GETKIIYHLDGQETPYLVKLPLPAERVTLAMFKGVLQRPSYKFFFKSMDDDFGVVKEEISDDNAKLPCFNGRVVSWLVSA	-0.047 ± 0.091
GETKIIYHLDGQETPYLVKLPLPAERVTLASFKGVLQRPSYKFFFKSMDDDFGVVKEEISDDNAKLPCFNGRVVSWLVSA	-0.577 ± 0.11

Variant	abundance fitness
GETKIIYHLDGQETPYLVKLPLPAERVTLATFKGVLQRPSYKFFFKSMDDDFGVVKEEISDDNAKLPCFNGRVVSWLVSA	-0.217 ± 0.087
GETKIIYHLDGQETPYLVKLPLPAERVTLAEFKGVLQRPSYKFFFKSMDDDFGVVKEEISDDNAKLPCFNGRVVSWLVSA	-0.178 ± 0.081
GETKIIYHLDGQETPYLVKLPLPAERVTLAAFKGVLQRPSYKFFFKSMDDDFGVVKEEISDDNAKLPCFNGRVVSWLVSA	-0.099 ± 0.065
GETKIIYHLDGQETPYLVKLPLPAERVTLAFFKGVLQRPSYKFFFKSMDDDFGVVKEEISDDNAKLPCFNGRVVSWLVSA	-0.742 ± 0.24
GETKIIYHLDGQETPYLVKLPLPAERVTLAHFKGVLQRPSYKFFFKSMDDDFGVVKEEISDDNAKLPCFNGRVVSWLVSA	0.282 ± 0.089
GETKIIYHLDGQETPYLVKLPLPAERVTLAVFKGVLQRPSYKFFFKSMDDDFGVVKEEISDDNAKLPCFNGRVVSWLVSA	-0.448 ± 0.086
GETKIIYHLDGQETPYLVKLPLPAERVTLAGFKGVLQRPSYKFFFKSMDDDFGVVKEEISDDNAKLPCFNGRVVSWLVSA	-0.776 ± 0.1
GETKIIYHLDGQETPYLVKLPLPAERVTLACFKGVLQRPSYKFFFKSMDDDFGVVKEEISDDNAKLPCFNGRVVSWLVSA	-0.359 ± 0.13
GETKIIYHLDGQETPYLVKLPLPAERVTLAYFKGVLQRPSYKFFFKSMDDDFGVVKEEISDDNAKLPCFNGRVVSWLVSA	-0.714 ± 0.2
GETKIIYHLDGQETPYLVKLPLPAERVTLAQFKGVLQRPSYKFFFKSMDDDFGVVKEEISDDNAKLPCFNGRVVSWLVSA	-0.634 ± 0.17
GETKIIYHLDGQETPYLVKLPLPAERVTLALFKGVLQRPSYKFFFKSMDDDFGVVKEEISDDNAKLPCFNGRVVSWLVSA	-0.791 ± 0.11
GETKIIYHLDGQETPYLVKLPLPAERVTLADFFGVLQRPSYKFFFKSMDDDFGVVKEEISDDNAKLPCFNGRVVSWLVSA	-0.661 ± 0.2
GETKIIYHLDGQETPYLVKLPLPAERVTLADFRGVLQRPSYKFFFKSMDDDFGVVKEEISDDNAKLPCFNGRVVSWLVSA	-0.693 ± 0.083
GETKIIYHLDGQETPYLVKLPLPAERVTLADFDGVLQRPSYKFFFKSMDDDFGVVKEEISDDNAKLPCFNGRVVSWLVSA	-1.06 ± 0.29
GETKIIYHLDGQETPYLVKLPLPAERVTLADFAGVLQRPSYKFFFKSMDDDFGVVKEEISDDNAKLPCFNGRVVSWLVSA	-1.08 ± 0.18
GETKIIYHLDGQETPYLVKLPLPAERVTLADFLGVLQRPSYKFFFKSMDDDFGVVKEEISDDNAKLPCFNGRVVSWLVSA	-0.936 ± 0.13
GETKIIYHLDGQETPYLVKLPLPAERVTLADFIGVLQRPSYKFFFKSMDDDFGVVKEEISDDNAKLPCFNGRVVSWLVSA	-0.939 ± 0.26
